These results are taken from patent CN106117359A (UNIV SUN YAT SEN, dated 2016).

For experiment [1], the target named is CD3 on Jurkat细胞 (Jurkat靶标细胞) (human) (UniProt P07766). Put plainly: flow cytometry (FACSCalibur), culture supernatant on Jurkat cells; negative control sdAb. On the technique in general: A flow cytometer gives signals particle by particle.
Experiment [2] shares this target. Put plainly: flow cytometry (FACSCalibur), culture supernatant on Jurkat cells.
In the next experiment the target is T1, CD3-His蛋白(MP-5) (human, UniProt P07766 23-126).
T1 construct: also called CD3蛋白; not shown: His tag
T1 sequence (P07766 23-126): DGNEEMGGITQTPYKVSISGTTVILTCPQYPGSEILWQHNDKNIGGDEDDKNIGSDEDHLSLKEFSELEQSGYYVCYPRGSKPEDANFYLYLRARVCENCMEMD
Put plainly: BLI (Octet RED96) off-rate screening; sdAb-SASA from expression medium captured on BSA-coated biosensor, CD3 at 100 nM in solution, 30°C, 1:1 Langmuir model.

The molecule NC-sdAb (相同形式的非相关性sdAb) (VHH) came in with an MFI in experiment [1] of 115 MFI.

B1: 抗CD3单域抗体 C12 (sdAb clone C12) (VHH)
VHH: QVQLQESGGGLVQPGGSLRLSCAASGSMYRPNTMGWHRQAPGEQRKLVARITSDGNTNYADSVKGRFTISRDNAKNTVHLEMNSLQPEDTAVYYCYYSDFVNLRGFWGQGTQVTVSS
notes: Llama sdAb from a phage display library; Tested as unpurified sdAb-SASA protein in E. coli expression medium or culture supernatant; 1 in its text; also called sdAb-SASA; not shown: SASA fusion partner from the pFASEBA vector (sdAb-SASA protein in expression medium)
The term koff denotes the rate constant with which the complex falls apart. A lower koff goes with slow dissociation. Consider B1, for which the MFI in experiment [2] was determined as 2330 MFI. In the experiment with CD3-His蛋白(MP-5), the koff amounted to 6.61e-05 s⁻¹.
